{"source": "patent US20240033343A1", "key": {"[1]": {"target": "SARS-CoV-2 Sclamp (SARS-CoV-2) (UniProt P0DTC2)"}, "[2]": {"target": "SARS-CoV-2 Sclamp (SARS-CoV-2) (UniProt P0DTC2)", "assay": "characterization of the lead candidate; ELISA per paragraph 282"}, "[3]": {"target": "SARS-CoV-2-foldon (SARS-CoV-2) (UniProt P0DTC2)", "assay": "ELISA on purified antigen, antibody titrated"}, "[4]": {"target": "SARS-CoV-2 Sclamp (SARS-CoV-2) (UniProt P0DTC2)", "assay": "ELISA on purified antigen, antibody titrated"}}, "note": "Read-outs that look alike come from different tables or passages of the source.", "data": [{"substance": "CB6 (antibody)", "values": [{"measurement": "Kd", "setting": "[1]", "value": 0.15, "unit": "nM"}]}, {"substance": "CR3022 (antibody)", "values": [{"measurement": "Kd", "setting": "[1]", "value": 0.13, "unit": "nM"}, {"measurement": "Kd", "setting": "[2]", "value": 0.3, "unit": "nM"}]}, {"substance": "DH1047 (antibody)", "values": [{"measurement": "EC50 (read off the curve)", "setting": "[3]", "value": 0.4, "unit": "nM"}, {"measurement": "EC50 (read off the curve)", "setting": "[4]", "value": 0.3, "unit": "nM"}]}, {"substance": "S309 (antibody)", "values": [{"measurement": "Kd", "setting": "[1]", "value": 0.08, "unit": "nM"}]}, {"substance": "huCR3022 (antibody)", "values": [{"measurement": "EC50 (read off the curve)", "setting": "[3]", "value": 0.6, "unit": "nM"}, {"measurement": "EC50 (read off the curve)", "setting": "[4]", "value": 0.6, "unit": "nM"}]}]}
